Assay results from patent US20170283834A1, “Processes for Producing A Fermentation Product Using A Fermenting Organism” (Novozymes A/S, priority 2014, published 2017).

System: zein
Experiment: Relative activity assay of protease variants (zein micro titer plate)
Type: biochemical
Conditions: for Relative activity 65° C./60° C.: Table 2
Protocol: Each well contains 200 microL of 0.05-0.1% of zein (Sigma), 0.25 mM ZnSO4 and 1% of agar in 20 mM sodium acetate buffer, pH 4.5.
Yeast clones on SC-glucose were inoculated to a well of a 96-well micro titre plate containing YPD+Zn medium and cultivated at 28° C. for 3 days. The culture supernatants were applied to a 96-well zein micro titer plate and incubated at at least 2 temperatures (ex. 60° C. and 65° C., 70° C. and 75° C., 70° C. and 80° C.) for more than 4 hours or overnight. The turbidity of zein in the plate was measured as A630 and the relative activity (higher/lower temperatures) was determined as an indicator of thermoactivity improvement. The clones with higher relative activity than the parental variant were selected and the sequence was determined.

B1: JTP005: protease variant of SEQ ID NO: 3: A112P (protein, listed as Thermoascus aurantiacus)
chain: MRLVASLTALVALSVPVFPAAVNVKRASSYLEITLSQVSNTLIKAVVQNTGSDELSFVHLNFFKDPAPVKKVSVYRDGSEVQFEGILSRYKSTGLSRDAFTYLAPGESVEDVFDIASTYDLTSGGPVTIRTEGVVPYATANSTDIAGYISYSSNVLTIDVDGAAAATVSKAITPLDRRTRISSCSGSRQSALTTALRNAASLANAAADAAQSGSASKFSEYFKTTSSSTRQTVAARLRAVAREASSSSSGATTYYCDDPYGYCSSNVLAYTLPSYNIIANCDIFYTYLPPLTSTCHAQDQATTALHEFTHAPGVYSPGTDDLAYGYQAAMGLSSSQAVMNADTYALYANAIYLGC
Relative activity 65° C./60° C.: 43%

B2: JTP004: protease variant of SEQ ID NO: 3: S87P (protein, listed as Thermoascus aurantiacus)
chain: MRLVASLTALVALSVPVFPAAVNVKRASSYLEITLSQVSNTLIKAVVQNTGSDELSFVHLNFFKDPAPVKKVSVYRDGSEVQFEGILSRYKSTGLSRDAFTYLAPGESVEDVFDIASTYDLTSGGPVTIRTEGVVPYATANSTDIAGYISYSSNVLTIDVDGAAAATVSKAITPLDRRTRISSCSGSRQSALTTALRNAASLANAAADAAQSGSASKFSEYFKTTSSSTRQTVAARLRAVAREASSSSSGATTYYCDDPYGYCSPNVLAYTLPSYNIIANCDIFYTYLPALTSTCHAQDQATTALHEFTHAPGVYSPGTDDLAYGYQAAMGLSSSQAVMNADTYALYANAIYLGC
Relative activity 65° C./60° C.: 45%

B3: JTP008: protease variant of SEQ ID NO: 3: R2P (protein, listed as Thermoascus aurantiacus)
chain: MRLVASLTALVALSVPVFPAAVNVKRASSYLEITLSQVSNTLIKAVVQNTGSDELSFVHLNFFKDPAPVKKVSVYRDGSEVQFEGILSRYKSTGLSRDAFTYLAPGESVEDVFDIASTYDLTSGGPVTIRTEGVVPYATANSTDIAGYISYSSNVLTIDVDGAAAATVSKAITPLDRRTPISSCSGSRQSALTTALRNAASLANAAADAAQSGSASKFSEYFKTTSSSTRQTVAARLRAVAREASSSSSGATTYYCDDPYGYCSSNVLAYTLPSYNIIANCDIFYTYLPALTSTCHAQDQATTALHEFTHAPGVYSPGTDDLAYGYQAAMGLSSSQAVMNADTYALYANAIYLGC
Relative activity 65° C./60° C.: 71%

B4: JTP011: protease variant of SEQ ID NO: 3: D79M (protein, listed as Thermoascus aurantiacus)
chain: MRLVASLTALVALSVPVFPAAVNVKRASSYLEITLSQVSNTLIKAVVQNTGSDELSFVHLNFFKDPAPVKKVSVYRDGSEVQFEGILSRYKSTGLSRDAFTYLAPGESVEDVFDIASTYDLTSGGPVTIRTEGVVPYATANSTDIAGYISYSSNVLTIDVDGAAAATVSKAITPLDRRTRISSCSGSRQSALTTALRNAASLANAAADAAQSGSASKFSEYFKTTSSSTRQTVAARLRAVAREASSSSSGATTYYCMDPYGYCSSNVLAYTLPSYNIIANCDIFYTYLPALTSTCHAQDQATTALHEFTHAPGVYSPGTDDLAYGYQAAMGLSSSQAVMNADTYALYANAIYLGC
Relative activity 65° C./60° C.: 73%

B5: JTP036: protease variant of SEQ ID NO: 3: D79L/S87P/D142L (protein, listed as Thermoascus aurantiacus)
chain: MRLVASLTALVALSVPVFPAAVNVKRASSYLEITLSQVSNTLIKAVVQNTGSDELSFVHLNFFKDPAPVKKVSVYRDGSEVQFEGILSRYKSTGLSRDAFTYLAPGESVEDVFDIASTYDLTSGGPVTIRTEGVVPYATANSTDIAGYISYSSNVLTIDVDGAAAATVSKAITPLDRRTRISSCSGSRQSALTTALRNAASLANAAADAAQSGSASKFSEYFKTTSSSTRQTVAARLRAVAREASSSSSGATTYYCLDPYGYCSPNVLAYTLPSYNIIANCDIFYTYLPALTSTCHAQDQATTALHEFTHAPGVYSPGTLDLAYGYQAAMGLSSSQAVMNADTYALYANAIYLGC
Relative activity 70° C./65° C. (Table 3): 73% | Relative activity 75° C./65° C. (Table 3): 73%

B6: JTP021: protease variant of SEQ ID NO: 3: M152R (protein, listed as Thermoascus aurantiacus)
chain: MRLVASLTALVALSVPVFPAAVNVKRASSYLEITLSQVSNTLIKAVVQNTGSDELSFVHLNFFKDPAPVKKVSVYRDGSEVQFEGILSRYKSTGLSRDAFTYLAPGESVEDVFDIASTYDLTSGGPVTIRTEGVVPYATANSTDIAGYISYSSNVLTIDVDGAAAATVSKAITPLDRRTRISSCSGSRQSALTTALRNAASLANAAADAAQSGSASKFSEYFKTTSSSTRQTVAARLRAVAREASSSSSGATTYYCDDPYGYCSSNVLAYTLPSYNIIANCDIFYTYLPALTSTCHAQDQATTALHEFTHAPGVYSPGTDDLAYGYQAARGLSSSQAVMNADTYALYANAIYLGC
Relative activity 65° C./60° C.: 59%

B7: JTP014: protease variant of SEQ ID NO: 3: D79L/S87P/A112P (protein, listed as Thermoascus aurantiacus)
chain: MRLVASLTALVALSVPVFPAAVNVKRASSYLEITLSQVSNTLIKAVVQNTGSDELSFVHLNFFKDPAPVKKVSVYRDGSEVQFEGILSRYKSTGLSRDAFTYLAPGESVEDVFDIASTYDLTSGGPVTIRTEGVVPYATANSTDIAGYISYSSNVLTIDVDGAAAATVSKAITPLDRRTRISSCSGSRQSALTTALRNAASLANAAADAAQSGSASKFSEYFKTTSSSTRQTVAARLRAVAREASSSSSGATTYYCLDPYGYCSPNVLAYTLPSYNIIANCDIFYTYLPPLTSTCHAQDQATTALHEFTHAPGVYSPGTDDLAYGYQAAMGLSSSQAVMNADTYALYANAIYLGC
Relative activity 65° C./60° C.: 88%

B8: JTP010: protease variant of SEQ ID NO: 3: D79L (protein, listed as Thermoascus aurantiacus)
chain: MRLVASLTALVALSVPVFPAAVNVKRASSYLEITLSQVSNTLIKAVVQNTGSDELSFVHLNFFKDPAPVKKVSVYRDGSEVQFEGILSRYKSTGLSRDAFTYLAPGESVEDVFDIASTYDLTSGGPVTIRTEGVVPYATANSTDIAGYISYSSNVLTIDVDGAAAATVSKAITPLDRRTRISSCSGSRQSALTTALRNAASLANAAADAAQSGSASKFSEYFKTTSSSTRQTVAARLRAVAREASSSSSGATTYYCLDPYGYCSSNVLAYTLPSYNIIANCDIFYTYLPALTSTCHAQDQATTALHEFTHAPGVYSPGTDDLAYGYQAAMGLSSSQAVMNADTYALYANAIYLGC
Relative activity 65° C./60° C.: 75%

B9: JTP013: protease variant of SEQ ID NO: 3: D79L/S87P/A112P (protein, listed as Thermoascus aurantiacus)
chain: MRLVASLTALVALSVPVFPAAVNVKRASSYLEITLSQVSNTLIKAVVQNTGSDELSFVHLNFFKDPAPVKKVSVYRDGSEVQFEGILSRYKSTGLSRDAFTYLAPGESVEDVFDIASTYDLTSGGPVTIRTEGVVPYATANSTDIAGYISYSSNVLTIDVDGAAAATVSKAITPLDRRTRISSCSGSRQSALTTALRNAASLANAAADAAQSGSASKFSEYFKTTSSSTRQTVAARLRAVAREASSSSSGATTYYCLDPYGYCSPNVLAYTLPSYNIIANCDIFYTYLPPLTSTCHAQDQATTALHEFTHAPGVYSPGTDDLAYGYQAAMGLSSSQAVMNADTYALYANAIYLGC
Relative activity 65° C./60° C.: 90%

B10: JTP009: protease variant of SEQ ID NO: 3: D79K (protein, listed as Thermoascus aurantiacus)
chain: MRLVASLTALVALSVPVFPAAVNVKRASSYLEITLSQVSNTLIKAVVQNTGSDELSFVHLNFFKDPAPVKKVSVYRDGSEVQFEGILSRYKSTGLSRDAFTYLAPGESVEDVFDIASTYDLTSGGPVTIRTEGVVPYATANSTDIAGYISYSSNVLTIDVDGAAAATVSKAITPLDRRTRISSCSGSRQSALTTALRNAASLANAAADAAQSGSASKFSEYFKTTSSSTRQTVAARLRAVAREASSSSSGATTYYCKDPYGYCSSNVLAYTLPSYNIIANCDIFYTYLPALTSTCHAQDQATTALHEFTHAPGVYSPGTDDLAYGYQAAMGLSSSQAVMNADTYALYANAIYLGC
Relative activity 65° C./60° C.: 69%

B11: JTP016: protease variant of SEQ ID NO: 3: A73C (protein, listed as Thermoascus aurantiacus)
chain: MRLVASLTALVALSVPVFPAAVNVKRASSYLEITLSQVSNTLIKAVVQNTGSDELSFVHLNFFKDPAPVKKVSVYRDGSEVQFEGILSRYKSTGLSRDAFTYLAPGESVEDVFDIASTYDLTSGGPVTIRTEGVVPYATANSTDIAGYISYSSNVLTIDVDGAAAATVSKAITPLDRRTRISSCSGSRQSALTTALRNAASLANAAADAAQSGSASKFSEYFKTTSSSTRQTVAARLRAVAREASSSSSGCTTYYCDDPYGYCSSNVLAYTLPSYNIIANCDIFYTYLPALTSTCHAQDQATTALHEFTHAPGVYSPGTDDLAYGYQAAMGLSSSQAVMNADTYALYANAIYLGC
Relative activity 65° C./60° C.: 52%

B12: JTP012: protease variant of SEQ ID NO: 3: D79L/S87P (protein, listed as Thermoascus aurantiacus)
chain: MRLVASLTALVALSVPVFPAAVNVKRASSYLEITLSQVSNTLIKAVVQNTGSDELSFVHLNFFKDPAPVKKVSVYRDGSEVQFEGILSRYKSTGLSRDAFTYLAPGESVEDVFDIASTYDLTSGGPVTIRTEGVVPYATANSTDIAGYISYSSNVLTIDVDGAAAATVSKAITPLDRRTRISSCSGSRQSALTTALRNAASLANAAADAAQSGSASKFSEYFKTTSSSTRQTVAARLRAVAREASSSSSGATTYYCLDPYGYCSPNVLAYTLPSYNIIANCDIFYTYLPALTSTCHAQDQATTALHEFTHAPGVYSPGTDDLAYGYQAAMGLSSSQAVMNADTYALYANAIYLGC
Relative activity 65° C./60° C.: 86%

B13: JTP019: protease variant of SEQ ID NO: 3: A126V (protein, listed as Thermoascus aurantiacus)
chain: MRLVASLTALVALSVPVFPAAVNVKRASSYLEITLSQVSNTLIKAVVQNTGSDELSFVHLNFFKDPAPVKKVSVYRDGSEVQFEGILSRYKSTGLSRDAFTYLAPGESVEDVFDIASTYDLTSGGPVTIRTEGVVPYATANSTDIAGYISYSSNVLTIDVDGAAAATVSKAITPLDRRTRISSCSGSRQSALTTALRNAASLANAAADAAQSGSASKFSEYFKTTSSSTRQTVAARLRAVAREASSSSSGATTYYCDDPYGYCSSNVLAYTLPSYNIIANCDIFYTYLPALTSTCHAQDQATTVLHEFTHAPGVYSPGTDDLAYGYQAAMGLSSSQAVMNADTYALYANAIYLGC
Relative activity 65° C./60° C.: 69%
